Common to all, as to type: cell-based, mouse
In test [1] the test system is 3T3-L1 adipocytes. Briefly: Sfrp5 and adiponectin transcript expression in 3T3-L1 adipocytes treated with stress agents (QRT-PCR). The following applies: differentiated 3T3-L1 adipocytes, 24 h; TNFα 10 ng/ml, H2O2 0.2 mM, tunicamycin 5 μg/ml. On the procedure:
(§1) Mouse 3T3-L1 cells (ATCC) were maintained in DMEM with 10% fetal bovine serum (FBS) and differentiated into adipocytes by treatment with DMEM supplemented with 5 μg/ml of insulin, 0.5 mM 1-methyl-3-isobutyl-xanthin, and 1 μM dexamethazone. At day 7 after differentiation, 3T3-L1 adipocytes were treated with tunicamycin, H2O2, TNFα or vehicle for 24 h. Peritoneal macrophages from lean WT C57BL/6 mice were maintained in DMEM supplemented 10% FBS and placed in DMEM with 0.5% FBS for 16 h for serum starvation. Macrophages were incubated in the conditioned media from 3T3-L1 adipocytes transduced with adenoviral vectors in the presence of Wnt5a protein (200 ng/ml) or vehicle for 24 h. In some experiments, cells were pretreated with SP600125 (15 μM) or vehicle for 1 h followed by treatment with Wnt5a protein.
Epididymal fat pads from male wild-type C57BL/6 mice fed a normal diet were excised, minced in PBS and digested with 1 mg/ml collagenase Type 1 (Worthington Chemical Corporation) at 37° C. for 30 min. The digested fat tissue was filtered through a mesh and centrifuged at 1000 rpm for 5 min to separate floating adipocytes from the SV fraction. Measurement of mRNA Levels Gene expression level was quantified by real-time PCR. Total RNA was prepared with the use of a Qiagen kit. cDNA was produced using ThermoScript RT-PCR Systems (Invitrogen). PCR was performed on iCycler iQ Real-Time PCR Detection System (Bio-Rad) using SYBR Green 1 as a […] DNA specific dye (Applied Biosystems).

Test [2] concerns TOPflash reporter activity (canonical Wnt signaling). The experiment in a line: TOPflash luciferase reporter assay in 3T3-L1 adipocytes. The settings on record: Wnt5a 200 ng/ml 24 h, AdTRE-Sfrp5 transduction. On the procedure: 3T3-L1 adipocytes were transduced with adenoviral vectors for 24 h and co-transfected with a TOPflash (Upstate) construct and a Renilla luciferase control plasmid (pRL-SV40, Promega) to normalize for transfection efficiency. After transfection, cells were treated with Wnt5a protein (200 ng/ml) or vehicle. Cells were lysed and analyzed on a luminometer by using dual luciferase assay kit (Promega).
A general note: In a reporter assay the amount or activity of a reporter protein is the signal.

Test [3] relates to phosphorylation of JNK in adipocytes. The experiment in a line: Wnt5a-stimulated JNK phosphorylation in 3T3-L1 adipocytes (immunoblot). The settings on record: Wnt5a 30 min. As to the method:
as §1
A general note: In western blotting, separated proteins are transferred to a membrane and probed.

Test [4] deals with JNK phosphorylation in macrophages. The experiment in a line: Wnt5a-stimulated JNK phosphorylation in peritoneal macrophages (immunoblot). The following applies: in conditioned media from Ad-β-gal-treated 3T3-L1 adipocytes, 30 min. On the procedure: as §1, with “Macrophages were incubated in the conditioned media from 3T3-L1 adipocytes transduced with adenoviral vectors in the presence of Wnt5a protein (200 ng/ml) or vehicle for 24 h.” left out

Test [5] has as its system TNFα and IL-6 transcript expression by macrophages. Briefly: Wnt5a-stimulated TNFα and IL-6 transcript expression in peritoneal macrophages (QRT-PCR). The settings on record: Wnt5a 200 ng/ml, 24 h. As to the method: as §1
(§2) Epididymal fat pads from male wild-type C57BL/6 mice fed a normal diet were excised, minced in PBS and digested with 1 mg/ml collagenase Type 1 (Worthington Chemical Corporation) at 37° C. for 30 min. The digested fat tissue was filtered through a mesh and centrifuged at 1000 rpm for 5 min to separate floating adipocytes from the SV fraction. Measurement of mRNA Levels Gene expression level was quantified by real-time PCR. Total RNA was prepared with the use of a Qiagen kit. cDNA was produced using ThermoScript RT-PCR Systems (Invitrogen). […]

For test [6], the system named is IL-6 expression in adipocytes. The experiment in a line: Wnt5a-stimulated IL-6 expression in 3T3-L1 adipocytes (QRT-PCR). The following applies: Wnt5a 200 ng/ml 24 h. On the procedure:
as §1, §2

With `OO` [hydrogen peroxide], in test [1], the Sfrp5 transcript levels entry is given as “significantly reduced” and the “transcript level of adiponectin” value is reported as “down-regulated”.
For TNFα the same measures were “significantly reduced” and “down-regulated”.
With tunicamycin, in test [1], the Sfrp5 transcript levels result is on record as “significantly reduced” and the “transcript level of adiponectin” value is on record as “down-regulated”.

B1: Sfrp5: secreted frizzled-related protein 5, here overexpressed in adipocytes by AdTRE-Sfrp5 transduction (protein, UniProt Q9WU66 22-314, looked up)
Secreted frizzled-related …: APTRGQEYDYYGWQAEPLHGRSYSKPPQCLDIPADLPLCHTVGYKRMRLPNLLEHESLAEVKQQASSWLPLLAKRCHSDTQVFLCSLFAPVCLDRPIYPCRSLCEAARAGCAPLMEAYGFPWPEMLHCHKFPLDNDLCIAVQFGHLPATAPPVTKICAQCEMEHSADGLMEQMCSSDFVVKMRIKEIKIDNGDRKLIGAQKKKKLLKAGPLKRKDTKKLVLHMKNGASCPCPQLDNLTGSFLVMGRKVEGQLLLTAVYRWDKKNKEMKFAVKFMFSYPCSLYYPFFYGAAEPH
For the molecule B1, in test [2], the “effect on TOPflash reporter activity” value is reported as “neither Sfrp5 nor Wnt5a had an effect”.

B2: Wnt5a: recombinant mouse Wnt5a protein produced in CHO cells, purchased from R&D Systems (protein)
chain: IIGAQPLCSQLAGLSQGQKKLCHLYQDHMQYIGEGAKTGIKECQYQFRHRRWNCSTVDNTSVFGRVMQIGSRETAFTYAVSAAGVVNAMSRACREGELSTCGCSRAARPKDLPRDWLWGGCGDNIDYGYRFAKEFVDARERERIHAKGSYESARILMNLHNNEAGRRTVYNLADVACKCHGVSGSCSLKTCWLQLADFRKVGDALKEKYDSAAAMRLNSRGKLVQVNSRFNSPTTQDLVYIDPSPDYCVRNESTGSLGTQGRLCNKTSEGMDGCELMCCGRGYDQFKTVQTERCHCKFHWCCYVKCKKCTEIVDQFVCK
As to B2, the “phosphorylation of JNK in adipocytes” value in test [3] was “stimulatory effects”. Further, the “effect on TOPflash reporter activity” value in test [2] is “neither Sfrp5 nor Wnt5a had an effect”. In test [4], the “JNK phosphorylation in macrophages” value is recorded as “stimulated”. Moreover, in test [5], the “IL-6 transcript expression by macrophages” value is recorded as “increased” and the “TNFα transcript expression by macrophages” value was “increased”. In test [6], the “IL-6 expression in adipocytes” value is “stimulatory effects”.
